Assay results from publication PMC3549664.

B1: keratin 18 (K18, hK18): K18 S30/31/49A (Gly−) (protein)
parent chain: MSFTTRSTFSTNYRSLGSVQAPSYGARPVSSAASVYAGAGGSGSRISVSRSTSFRGGMGSGGLATGIAGGLAGMGGIQNEKETMQSLNDRLASYLDRVRSLETENRRLESKIREHLEKKGPQVRDWSHYFKIIEDLRAQIFANTVDNARIVLQIDNARLAADDFRVKYETELAMRQSVENDIHGLRKVIDDTNITRLQLETEIEALKEELLFMKKNHEEEVKGLQAQIASSGLTVEVDAPKSQDLAKIMADIRAQYDELARKNREELDKYWSQQIEESTTVVTTQSAEVGAAETTLTELRRTVQSLEIDLDSMRNLKASLENSLREVEARYALQMEQLNGILLHLESELAQTRAEGQRQAQEYEALLNIKVKLEAEIATYRRLLEDGEDFNLGDALDSSNSMQTIQKTTTRRIVDGKVVSETNDTKVLRH
B2: keratin 18 (K18, hK18): K18 Gly− (protein)
parent chain: B1 parent chain

Legend:
[1] = immunofluorescence of liver and pancreas, basal; conditions: glycan lost; control: hK18 WT mice
[2] = gross appearance, histology, Oil red O, PAS, insulin stain; conditions: glycan lost; control: hK18 WT mice
[3] = Coomassie of high salt extract, hK18 blot; conditions: glycan lost; control: hK18-WT mouse line
[4] = survival after PUGNAc then Fas antibody; conditions: glycan lost; control: FVB/n and hK18 WT mice
anti-K18 pS53 blot = conditions: glycan lost; control: K18 WT transfectants

Protein	other: keratin filament organisation [1]	other: tissue injury after STZ [2]	expression_or_secretion [3]	other: mouse lethality after PUGNAc/Fas [4]	other: K18 S34/S53 phosphorylation (anti-K18 pS53 blot)
B1	no change	increases	no change	increases	–
B2	–	–	–	–	no change
